Test results reported in patent US20250382354A1 (INSTITUTE FOR RESEARCH IN BIOMEDICINE IRB, published 2025).
Positions count from the first letter of the chain named.

Experiments:
[1] = target: SARS-CoV-2 S of the Ancestral pseudovirus (pSARS-COV2-Strunc) (SARS-CoV-2 (ancestral), UniProt P0DTC2 14-1254); assay: cell-based or functional assay
[2] = target: C-terminally truncated SARS-CoV-2 S protein (pSARS-CoV2-Strunc), ancestral (SARS-CoV-2, UniProt P0DTC2 14-1273); assay: cell-based or functional assay

B1: rbd.142 (antibody, V domains shown)
VH: EVQLVESGGGVVQPGRSLRLSCVASGLTFSRYGMHWVRQAPGKGLEWVAVTTYDGSNKDYADSVKGRFTISRDNSKNTLYLQMNSLRAEDTAVYYCAKVGGGEYCSGGSCYGSYGMDVWGQGTTVTVSS
VL: not shown
- Ancestral Pseudovirus IC50 [1]: 5.09 µg/mL

B2: rbd.141 (antibody, V domains shown)
VH: EVQLVESGGGVVQPGRSLRLSCAASGFTFSSYGMHWVRQAPGKGLEWVAVISYDGKIKYYADSVEGRFTISRDNSKNALYLQMNSLRAEDTAVYYCAKYGIVTSFGVVPPYDMDVWGQGTTVTVSS
VL: DVVMTQSPLSLPVTLGQPASISCRSSQSLVYSDGNTFLNWFQQRPGQSPRRLIYKVSDRDSGVPDRFSGSGSGTDFTLKISRVEAEDVGVYYCMQGTNWPPTFGQGTKVEIK
- Ancestral Pseudovirus IC50 [1]: 0.164 µg/mL

B3: sd1.034 (antibody, V domains shown)
VH: EVQLVESGGGVVQPGRSLRLSCAASGFSFSNYGMHWVRQAPGKGLEWVAVISYDGSHKSFADSVKGRFTISRDNSKNTLNLQMNSLRREDTAVYYCATDQGGSLGYWGQGTLVTVSS
VL: QSALTQPASVSGSPGQSITISCTGTSGDVGGYNYVSWYQHHPGKAPKLMIYDVSNRPSGVSNRFSGSKSGNTASLTISGLQAEDEADYYCSSYTSTSTSWVFGGGTKLTVL
- Ancestral Pseudovirus IC50 [1]: 0.387 µg/mL

B4: hr2.090 (antibody, V domains shown)
VH: EVQLLESGGGLVQPGGSLRLSCAASGVTFSRYAMSWVRQAPGKGLEWVSTISGGGGGTYYADSVKGRFTISRDNSKNTLYLQMNSLRAEDTAVYYCATLLTVPGPYYFEYWGQGTLVTVSS
VL: EIVLTQSPGTLSLSPGERATLSCRASQSVSSSYLAWYQQKPGQAPRLLIYGASSRATGIPDRFSGSGSGTDFTLTISRLESEDFAVYYCQHSRFTFGPGTRVDIK
- Ancestral Pseudovirus IC50 [2]: 1.02 µg/mL

B5: sd1.108 (antibody, V domains shown)
VH: QVQLVQSGAEVKKPGASVKVSCKASGYTFTSYYIHWVRQTPGQGLEWMGIINPRGGSTSYPQKFQGRVSMTRDTSTSTVFMELSSLRSDDTAVYYCAREHREDTAMDNQPSDSWGQGTLVTVSS
VL: DIVMTQSPDSLSVSLGERATINCKSSRSVFYSSNNKSYLAWYQQKPGQPPKLLIYWASTRESGVRDRFSGSGSGTDFTLTISSLQAEDVAVYYCQQYYNTPYTFGQGTKLEIK
- Ancestral Pseudovirus IC50 [1]: 0.446 µg/mL

B6: rbd.043 (antibody, V domains shown)
VH: QVQLVQSGAEVKKPGSSVKVSCKVSGGSFSNYGISWVRQAPGQGLEWMGGIIPLFGPADYAQKVQGRVTITADKSTSTAYMELRSLRSEDTAVYFCARGVEIVATIVGPLVREDHYYYYGMDVWGQGTTVTVSS
VL: not shown
- Ancestral Pseudovirus IC50 [1]: 0.000573 µg/mL

B7: rbd.117 (antibody, V domains shown)
VH: EVQLVESGGGLVQPGGSLRLSCAASGFTFSRYAMSWVRQAPGKGLEWVSGLSGSGDSTYYADSVKGRFTISRDNSKKTLNLQMNSLRPEDTAVYYCAKGSRFGIDYFDCWGQGTLVTVSS
VL: DIQMTQSPSTLSASVGDRVTITCRASQSISSWLAWYQLKPGKAPKLLIYDASSLESGVPSRFSGSGSGTEFTLTISSLQPDDFATYYCQQYNTYPFSFGPGTKVDIK
- Ancestral Pseudovirus IC50 [1]: 0.203 µg/mL

B8: rbd.123 (antibody, V domains shown)
VH: QVQLVQSGAEVKKPGSSVKVSCKASGGAFRMYAISWVRQAPGQGLEWMGGIIPISGTATYTQNFQGRVTITVDRSTSTAYMELSSLRSDDTALYYCARGPRTGYDYFDFWGQGTLVTVSS
VL: B7 VL with L38Q, K45N, N92K, T93S, F96Y, S97T, P100Q, V104L, D105E
- Ancestral Pseudovirus IC50 [1]: 1.21 µg/mL

B9: rbd.045 (antibody, V domains shown)
VH: QVQLQESGPGLVKPSETLSLTCTVSGGAFRSFFWTWIRQPPGKGLEWIGNIYYSGSTNYNPSLKSRVTISQDMSENQFSLKLSSVTAADTAVYYCARSQWLRGNFDHWGQGILVTVSS
VL: NFMLTQPHSVSESPGKTVTISCTATSGYIASNYVQWYQQRPGSAPTTVIYEDNQRPSGVPDRFSGSIDSSSNSASLTISGLKPEDEADYYCQSFDTAYAVFGGGTQLTVL
- Ancestral Pseudovirus IC50 [1]: 0.00557 µg/mL

B10: rbd.049 (antibody, V domains shown)
VH: QLQLQESGPGLVKPSETLSLSCTVSGGSISSKSDYWGWIRQSPGKGLEWIGSIYYTGTTYYNPSLKSRVSISLDKSKNQFSLKLNSLTAADTALYYCARDPSIAVATTVYFDAWGQGTLVTVSS
VL: EIVLTQSPGTLSLSPGERATLSCRASESVKSNYLAWYQQKLGQPPRLLIFGASTRATGIPDRFSGSGSGTDFTLTISRLEPEDFAVYYCQQYHTSPPRYTFGQGTKLEIK
- Ancestral Pseudovirus IC50 [1]: 3.71 µg/mL

B11: hr2.019 (antibody, V domains shown)
VH: EVQLVESGGGLVKPGGSLRLSCAASGSSVIDVWMNWVRQAPGKGLEWVGRIKTKASGAATDYGAPVKGRFTISRDDSKNLSYLQMNSLRAEDTGIYYCTTSPLPNFDYWGRGTLVTVSS
VL: DIVMTQSPDFLAVSLGETATINCRSSQSVFYFANNKNYLAWYQQKPGQPPKLLIYWASKRESGVPDRFSGSGSGTDFTLTISSLQAEDVATYYCQQYSSPAITFGPGTKVDIK
- Ancestral Pseudovirus IC50 [2]: 1.22 µg/mL

B12: rbd.112 (antibody, V domains shown)
VH: EVQLVQSGAEVKKSGESLKISCKSSGYSFTTYWIAWVRQMPGKGLEWMGIIYPGHSDARYSPSFQGHVTISADKSISTAYLQWRSLKASDTAIYYCARLSYYDVSNFYYYDSYWFDSWGLGTLVTVSS
VL: QSVLTQPPSVSGAPGQRVTISCTGSSSNLGAGYDVHWYQQLPGTAPKLLIYANSNRPSGVPDRFSGSKSGTSASLAMTGLQAEDEADYYCQSYDSSLGGYVFGFGTKVTVL
- Ancestral Pseudovirus IC50 [1]: 0.0867 µg/mL

B13: rbd.143 (antibody, V domains shown)
VH: EVQLVESGGGLVQPGGSLRLSCSASGFTFRRYAMHWVRQAPGKGLQHVSAISSDGDNTHYADSVKGRFTISRDNFKNTLHLQMSSLRPEDTAVYYCVKDPFSNFHYFDCWGQGILVTVSS
VL: not shown
- Ancestral Pseudovirus IC50 [1]: 0.28 µg/mL

B14: fp.007 (antibody, V domains shown)
VH: EVQLVESGGGLVKPGGSLRLSCAGTGFIFSDAWMTWVRQAPGKGLEWVGRIKSKADGGTTDYAAPVKGRFTISRDDSKNTLYLEINSLKTEDTAVYYCTTGRSRYCIGAVCYYFDHWGQGTLVTVSS
VL: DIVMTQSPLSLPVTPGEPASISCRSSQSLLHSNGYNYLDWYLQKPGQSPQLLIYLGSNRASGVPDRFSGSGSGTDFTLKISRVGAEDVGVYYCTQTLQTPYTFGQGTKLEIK
- Ancestral Pseudovirus IC50 [2]: 11.1 µg/mL
- Ancestral Pseudovirus IC50 (on cells with [not given]) [2]: 3.98 µg/mL

B15: sd1.040 (antibody, V domains shown)
VH: QVQLVQSGAEVKKPGASVKVSCKASGYTFTSFYIHWVRQAPGQGLEWMGIIDPSGGSTSYPQKFQGRVTMTRDTSTSTVYMDLSSLRSEDTAVYYCTRDGSAGDNSWFDPWGQGTLVTVSS
VL: not shown
- Ancestral Pseudovirus IC50 [1]: 0.245 µg/mL

B16: rbd.035 (antibody, V domains shown)
VH: EVQLLESGGGLIEPGGSLRLSCAASGFPFNTFAMTWVRQPPGKGLEWVATISSRGDYTFYADFVKGRFSISRDNANNALWLDMSGLRAEDTALYYCAKGESGYDLYLYGLDLWGQGTTVTVSS
VL: DIQMTQSPSSLSASVGDGVTITCRASQNINNYLSWYQKKAGKAPKLLIYGASTLHSGVPSRFSGSGSGTDFTLTISSLQPEDFASYYCQQNSPTPPWTFGQGTKVEIK
- Ancestral Pseudovirus IC50 [1]: 0.00152 µg/mL

B17: rbd.113 (antibody, V domains shown)
VH: EVQLVQSGAAVKKPGESLKISCKGSGYSFTNYWIGWVRQMPGKGLELMGIIYVGDSDTRYSPSFQGQVTISADKSITTAYLQWSSLKASDSAIYYCARQRCGGDCPFDLWGRGTLVTVSS
VL: DIQMTQSPSTLSASVGDRVTITCRASQSINRWLAWYQQKPGKAPELLIYDASDLESGVPSRFSGSGSGTEFTLTISSLQPDDFATYYCQQYNSYWTFGQGTKVEIK
- Ancestral Pseudovirus IC50 [1]: 0.373 µg/mL

B18: rbd.031 (antibody, V domains shown)
VH: EVQLVESGGGVVQPGRSLRLSCAASGFTFKTYGMHWVRQAPGKGLEWVAVISYEGSNEYYAESVKGRFTISRDNSKNTLYLHMNSLRAEDTAVYYCAKGEYYYHSSTYYYLDYWGRGTLVTVSS
VL: B17 VL with N30S, R31S, E45K, L46V, D53S, E55Q, S60L, N92D, S93T
- Ancestral Pseudovirus IC50 [1]: 0.862 µg/mL

B19: rbd.038 (antibody, V domains shown)
VH: QVQLVQSGAEVKKPGASVKVSCKASGYTFSGYYMHWVRQAPGQGLEWVGWISPTSGGTKYAQKFQGRVTMTRDTSITTVYMELNRLRSDDTAVYYCAREPFPYCTSDICHSNYFYYYAMDVWGQGTTVTVSS
VL: QSALTQPPSASGSPGQSVTISCTGSSSDLGDHNYVSWYQQHPGKAPKVMIYEVSKRPSGVPDRFSGSKSGNTASLTVSGLQAEDEADYYCSSYAGSLYVFGTGTKVTVL
- Ancestral Pseudovirus IC50 [1]: 0.000552 µg/mL

B20: sd1.127 (antibody, V domains shown)
VH: EVQLVESGGALVKPGGSLTLSCVASGFTFSHAWMTWVRQAPGKGLEWVGRIKTKTEGGTIDYAAPLRGRFTISRDDSKNTLYLRMNSLKIEDTAKYYCTTHSSPDYWGQGTLVTVSS
VL: DIQMTQSPSSLSASIGDRVTITCRASQGIGNSLLWYQQKRGKVPKLLIYAASTLQSGVPSRFSGSGSGTDFTLTISSLQPEDVATYYCQRYNSAPLTFGGGTKVEIK
- Ancestral Pseudovirus IC50 [1]: 6.68 µg/mL

B21: rbd.110 (antibody, V domains shown)
VH: EVQLVESGGGVVQPGRSLRLSCVASGFTFSRYGMHWVRQAPGKGLEWVATILYDGSDQYYAESVKGRFTISRDNSKNTLYLQMNSLREADTAVYYCAKTSYGYAYNFRLYFDYWGQGTLVTVSS
VL: SYELTQPPSVSVAPGKTATITCGGNNIGSAGVHWYQQRPGQAPVLVVYDDSDRPSGIPERFSGSTSGNTATLTISRVEAGDEADYYCQVWDSNSAPVIFGGGTKLTVL
- Ancestral Pseudovirus IC50 [1]: 4.25 µg/mL

B22: rbd.106 (antibody, V domains shown)
VH: EVQLVQSGAEVKKPGESLKISCKGSGYSFYNHWIAWVRQMPGKGLEWMGIIYPYDSDTRYSPSFQGQVTISADKSITTAYLQWSSLKASDTAIYYCARRSDYGEFGGHSDYWGQGTLVTVSS
VL: not shown
- Ancestral Pseudovirus IC50 [1]: 0.0674 µg/mL
